Assay results as given in IntAct's records for PubMed 12529400.

B1: Homeodomain-interacting protein kinase 1 (Mus musculus), O88904 (parent)
chain: MASQLQVFSPPSVSSSAFCSAKKLKIEPSGWDVSGQSSNDKYYTHSKTLPATQGQASSSHQVANFNLPAYDQGLLLPAPAVEHIVVTAADSSGSAATATFQSSQTLTHRSNVSLLEPYQKCGLKRKSEEVESNGSVQIIEEHPPLMLQNRTVVGAAATTTTVTTKSSSSSGEGDYQLVQHEILCSMTNSYEVLEFLGRGTFGQVAKCWKRSTKEIVAIKILKNHPSYARQGQIEVSILSRLSSENADEYNFVRSYECFQHKNHTCLVFEMLEQNLYDFLKQNKFSPLPLKYIRPILQQVATALMKLKSLGLIHADLKPENIMLVDPVRQPYRVKVIDFGSASHVSKAVCSTYLQSRYYRAPEIILGLPFCEAIDMWSLGCVIAELFLGWPLYPGASEYDQIRYISQTQGLPAEYLLSAGTKTTRFFNRDPNLGYPLWRLKTPEEHELETGIKSKEARKYIFNCLDDMAQVNMSTDLEGTDMLAEKADRREYIDLLKKMLTIDADKRITPLKTLNHQFVTMSHLLDFPHSSHVKSCFQNMEICKRRVHMYDTVSQIKSPFTTHVAPNTSTNLTMSFSNQLNTVHNQASVLASSSTAAAATLSLANSDVSLLNYQSALYPSSAAPVPGVAQQGVSLQPGTTQICTQTDPFQQTFIVCPPAFQTGLQATTKHSGFPVRMDNAVPIVPQAPAAQPLQIQSGVLTQGSCTPLMVATLHPQVATITPQYAVPFTLSCAAGRPALVEQTAAVLQAWPGGTQQILLPSAWQQLPGVALHNSVQPAAVIPEAMGSSQQLADWRNAHSHGNQYSTIMQQPSLLTNHVTLATAQPLNVGVAHVVRQQQSSSLPSKKNKQSAPVSSKSSLEVLPSQVYSLVGSSPLRTTSSYNSLVPVQDQHQPIIIPDTPSPPVSVITIRSDTDEEEDNKYKPNSSSLKARSNVISYVTVNDSPDSDSSLSSPHPTDTLSALRGNSGTLLEGPGRPAADGIGTRTIIVPPLKTQLGDCTVATQASGLLSSKTKPVASVSGQSSGCCITPTGYRAQRGGASAVQPLNLSQNQQSSSASTSQERSSNPAPRRQQAFVAPLSQAPYAFQHGSPLHSTGHPHLAPAPAHLPSQPHLYTYAAPTSAAALGSTSSIAHLFSPQGSSRHAAAYTTHPSTLVHQVPVSVGPSLLTSASVAPAQYQHQFATQSYIGSSRGSTIYTGYPLSPTKISQYSYL

Variants of: B1
Conditions: with daxx_human DAXX

Row | effect of a mutation on the interaction | Variant
1 | decreasing interaction | K219A

Variants of: B1
Conditions: with daxx_mouse Daxx

Row | effect of a mutation on the interaction | Variant
2 | decreasing interaction | K219A
